The source of these data is patent US20070148774A1.

In assay [1] the target is bovine thyroglobulin (bovine) (UniProt P01267). Description: phage ELISA, 200 ug/ml thyroglobulin coated. Background: ELISA stands for enzyme-linked immunosorbent assay.
For assay [2], the target named is fd h-PDGFB-R phage (extracellular domain of the human receptor for PDGF isoform BB displayed on fd phage) (human; bacteriophage fd) (UniProt P09619). As to the kind of experiment: displacement of 125I-PDGF-BB from receptor phage, immunoprecipitation. (In general: Displacement assays read how much labelled ligand stays bound in the presence of the test substance.)
fd h-PDGFB-R phage (extracellular domain of the human receptor for PDGF isoform BB displayed on fd phage) (human; bacteriophage fd), sequence (P09619 33-531, form in doubt): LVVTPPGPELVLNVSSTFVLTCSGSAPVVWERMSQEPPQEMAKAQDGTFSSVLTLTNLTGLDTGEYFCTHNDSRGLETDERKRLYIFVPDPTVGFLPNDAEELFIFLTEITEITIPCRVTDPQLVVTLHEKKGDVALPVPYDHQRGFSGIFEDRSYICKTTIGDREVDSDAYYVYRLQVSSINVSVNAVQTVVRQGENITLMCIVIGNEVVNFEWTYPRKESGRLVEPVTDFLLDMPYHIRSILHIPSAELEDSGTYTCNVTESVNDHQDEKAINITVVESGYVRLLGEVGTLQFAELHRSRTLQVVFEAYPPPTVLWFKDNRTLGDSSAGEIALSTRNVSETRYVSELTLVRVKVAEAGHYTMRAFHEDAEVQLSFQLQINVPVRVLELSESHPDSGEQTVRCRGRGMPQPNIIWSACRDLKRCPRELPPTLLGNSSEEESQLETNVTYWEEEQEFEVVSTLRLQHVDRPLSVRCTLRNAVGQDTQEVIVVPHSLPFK

bovine thyroglobulin (bovine), sequence (P01267 20-2769 limits assumed): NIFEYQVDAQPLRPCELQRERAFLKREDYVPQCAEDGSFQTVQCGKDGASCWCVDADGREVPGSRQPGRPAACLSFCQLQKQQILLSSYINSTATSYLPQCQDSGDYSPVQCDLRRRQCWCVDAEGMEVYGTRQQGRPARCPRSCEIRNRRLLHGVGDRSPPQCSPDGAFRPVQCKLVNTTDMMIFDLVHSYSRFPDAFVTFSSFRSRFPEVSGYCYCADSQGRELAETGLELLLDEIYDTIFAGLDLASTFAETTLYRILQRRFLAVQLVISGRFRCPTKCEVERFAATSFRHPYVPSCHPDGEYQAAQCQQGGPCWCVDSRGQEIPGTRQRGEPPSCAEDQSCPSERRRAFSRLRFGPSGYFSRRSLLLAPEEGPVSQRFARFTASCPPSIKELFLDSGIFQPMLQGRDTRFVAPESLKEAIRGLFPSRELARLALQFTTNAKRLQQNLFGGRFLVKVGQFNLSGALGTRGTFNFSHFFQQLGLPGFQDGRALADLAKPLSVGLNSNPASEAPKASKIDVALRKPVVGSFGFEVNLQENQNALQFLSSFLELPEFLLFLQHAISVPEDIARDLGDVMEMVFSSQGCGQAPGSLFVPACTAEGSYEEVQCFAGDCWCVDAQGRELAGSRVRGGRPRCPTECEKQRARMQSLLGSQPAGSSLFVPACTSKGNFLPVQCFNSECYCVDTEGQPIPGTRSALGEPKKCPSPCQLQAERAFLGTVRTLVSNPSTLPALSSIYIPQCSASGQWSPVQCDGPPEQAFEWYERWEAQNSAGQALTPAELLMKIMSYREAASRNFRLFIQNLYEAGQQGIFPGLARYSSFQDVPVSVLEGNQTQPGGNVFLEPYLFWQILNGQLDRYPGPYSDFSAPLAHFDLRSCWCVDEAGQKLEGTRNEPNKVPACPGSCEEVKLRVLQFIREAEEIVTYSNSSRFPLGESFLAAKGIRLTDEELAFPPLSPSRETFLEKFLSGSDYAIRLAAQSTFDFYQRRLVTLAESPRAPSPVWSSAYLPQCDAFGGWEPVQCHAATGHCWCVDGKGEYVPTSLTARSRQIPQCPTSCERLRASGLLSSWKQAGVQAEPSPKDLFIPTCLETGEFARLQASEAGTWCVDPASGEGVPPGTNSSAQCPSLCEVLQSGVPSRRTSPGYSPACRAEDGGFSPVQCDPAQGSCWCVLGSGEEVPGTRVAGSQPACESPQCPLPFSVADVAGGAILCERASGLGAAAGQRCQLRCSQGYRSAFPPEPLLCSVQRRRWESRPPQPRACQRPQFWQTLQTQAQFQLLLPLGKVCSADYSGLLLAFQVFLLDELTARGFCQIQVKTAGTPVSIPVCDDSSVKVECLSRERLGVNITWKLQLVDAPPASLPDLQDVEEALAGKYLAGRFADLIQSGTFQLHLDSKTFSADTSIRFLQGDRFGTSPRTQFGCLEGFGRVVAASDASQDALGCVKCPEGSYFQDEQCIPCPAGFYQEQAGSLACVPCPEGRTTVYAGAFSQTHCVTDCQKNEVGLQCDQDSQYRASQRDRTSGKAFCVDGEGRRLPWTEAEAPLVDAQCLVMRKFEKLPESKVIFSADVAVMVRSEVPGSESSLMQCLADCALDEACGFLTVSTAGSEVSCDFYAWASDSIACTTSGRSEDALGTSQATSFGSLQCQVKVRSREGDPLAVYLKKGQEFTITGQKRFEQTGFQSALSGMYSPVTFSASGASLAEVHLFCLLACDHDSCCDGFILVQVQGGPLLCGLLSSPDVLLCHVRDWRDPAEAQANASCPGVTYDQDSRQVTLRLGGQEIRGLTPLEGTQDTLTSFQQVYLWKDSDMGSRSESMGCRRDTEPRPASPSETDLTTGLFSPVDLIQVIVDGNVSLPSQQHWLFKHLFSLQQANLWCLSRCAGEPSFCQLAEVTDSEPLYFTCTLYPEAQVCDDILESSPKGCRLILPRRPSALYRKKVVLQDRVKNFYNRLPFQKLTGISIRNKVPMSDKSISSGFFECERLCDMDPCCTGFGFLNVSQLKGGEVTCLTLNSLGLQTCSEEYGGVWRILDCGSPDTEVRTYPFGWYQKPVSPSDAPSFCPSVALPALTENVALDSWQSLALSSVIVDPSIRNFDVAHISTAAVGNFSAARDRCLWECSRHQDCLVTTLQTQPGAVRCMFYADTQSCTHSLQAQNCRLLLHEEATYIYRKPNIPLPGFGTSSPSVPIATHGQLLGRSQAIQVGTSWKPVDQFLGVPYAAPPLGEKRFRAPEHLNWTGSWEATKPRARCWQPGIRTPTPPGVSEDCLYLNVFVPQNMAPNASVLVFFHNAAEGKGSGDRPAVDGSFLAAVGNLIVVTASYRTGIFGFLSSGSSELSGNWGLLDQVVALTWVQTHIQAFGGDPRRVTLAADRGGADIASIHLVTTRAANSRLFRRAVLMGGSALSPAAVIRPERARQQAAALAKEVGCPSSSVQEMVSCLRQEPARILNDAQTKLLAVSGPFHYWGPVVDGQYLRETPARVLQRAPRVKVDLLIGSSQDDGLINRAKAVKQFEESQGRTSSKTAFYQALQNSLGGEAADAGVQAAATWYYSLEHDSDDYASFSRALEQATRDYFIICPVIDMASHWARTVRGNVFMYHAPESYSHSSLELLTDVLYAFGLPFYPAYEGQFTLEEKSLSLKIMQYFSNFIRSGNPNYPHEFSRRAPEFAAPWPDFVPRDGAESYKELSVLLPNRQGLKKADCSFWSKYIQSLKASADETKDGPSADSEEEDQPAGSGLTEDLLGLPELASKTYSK

As for “pCAT-3 non-recombinant vector phagemid particles (from UniProt P03661 19-424)”, the O.D. in ELISA in assay [1] turned out to be 0.07 O.D. For “unlabelled PDGF-BB (from UniProt P01127 82-190; P01127 82-190) (ligand)”, the concentration at which binding of 125I-PDGF-BB was reduced to the control level in assay [2] came to 50 nM.
